Test results from patent US20030148958A1 (PROCTER AND GAMBLE, published 2003).
Substitutions are numbered along the chain they refer to. Ends that are not written are not given here.

B1: SEQ ID NO 88 (peptide)
peptide: SQEPPISLDLTFGLLREVLEMTKADQLAQQAHSNRKLLDIA-NH2
B2: SEQ ID NO 92 (peptide)
peptide: SQEPPISLDLPTELLREVLEMTKADQLAQQAHSNRKIIDIA-NH2
B3: SEQ ID NO 1 (peptide)
peptide: IVLSLDVPIGLLQELLEMARAEQLAQQAHSNRKLMEII-NH2
B4: SEQ ID NO 95 (peptide)
peptide: SQEPPISLDLPLQLLREVLEMTKADQLAQQAHSNRKLLDIA-NH2
B5: SEQ ID NO 86 (peptide)
peptide: SQEPPISLDLTIGLLREVLEMTKADQLAQQAHSNRKLLDIA-NH2
B6: SEQ ID NO 94 (peptide)
peptide: SQEPPISLDLPIHLLREVLEMTKADQLAQQAHSNRKLLDIA-NH2
B7: SEQ ID NO 96 (peptide)
peptide: SQEPPISLDLPFYLLREVLEMTKADQLAQQAHSNRKLLDIA-NH2
B8: SEQ ID NO 81 (peptide)
peptide: ZGPPISIDLPLYLLRKMIEIEKQEKEKQQAANNRLLLDT
modifications: C-terminal amide
B9: SEQ ID NO 87 (peptide)
peptide: SQEPPISLDLTIHLLREVLEMTKADQLAQQAHSNRKLLDIA-NH2
B10: SEQ ID NO 61 (peptide)
peptide: ZGPPISIDLPTALLRKMIEIEKQEKEKQQAANNRLLLDTI
modifications: C-terminal amide
B11: SEQ ID NO 74 (peptide)
peptide: B10 peptide with A12H
modifications: C-terminal amide
B12: SEQ ID NO 84 (peptide)
peptide: B10 peptide with T11F, A12Q
modifications: C-terminal amide
B13: SEQ ID NO 65 (peptide)
peptide: B10 peptide with T11R, A12Y
modifications: C-terminal amide
B14: SEQ ID NO 63 (peptide)
peptide: B10 peptide with T11G, A12Y
modifications: C-terminal amide
B15: SEQ ID NO 69 (peptide)
peptide: B10 peptide with T11F, A12H
modifications: C-terminal amide
B16: SEQ ID NO 68 (peptide)
peptide: B10 peptide with T11F, A12G
modifications: C-terminal amide
B17: SEQ ID NO 77 (peptide)
peptide: B10 peptide with T11I, A12H
modifications: C-terminal amide
B18: SEQ ID NO 73 (peptide)
peptide: B10 peptide with A12G
modifications: C-terminal amide
B19: SEQ ID NO 72 (peptide)
peptide: B10 peptide with A12Q
modifications: C-terminal amide
B20: SEQ ID NO 70 (peptide)
peptide: B10 peptide with A12Y
modifications: C-terminal amide
B21: SEQ ID NO 64 (peptide)
peptide: B10 peptide with T11N, A12Y
modifications: C-terminal amide
B22: SEQ ID NO 80 (peptide)
peptide: B10 peptide with T11L, A12Q
modifications: C-terminal amide
B23: SEQ ID NO 83 (peptide)
peptide: B10 peptide with T11L, A12H
modifications: C-terminal amide
B24: SEQ ID NO 82 (peptide)
peptide: B10 peptide with T11L, A12E
modifications: C-terminal amide
B25: SEQ ID NO 78 (peptide)
peptide: B10 peptide with T11I, A12Q
modifications: C-terminal amide
B26: SEQ ID NO 71 (peptide)
peptide: B10 peptide with A12E
modifications: C-terminal amide
B27: SEQ ID NO 76 (peptide)
peptide: B10 peptide with T11I, A12E
modifications: C-terminal amide
B28: SEQ ID NO 79 (peptide)
peptide: B10 peptide with T11I, A12Y
modifications: C-terminal amide
B29: SEQ ID NO 75 (peptide)
peptide: B10 peptide with T11I, A12G
modifications: C-terminal amide
B30: SEQ ID NO 67 (peptide)
peptide: B10 peptide with T11F, A12E
modifications: C-terminal amide
B31: SEQ ID NO 85 (peptide)
peptide: B10 peptide with T11F, A12Y
modifications: C-terminal amide
B32: SEQ ID NO 97 (peptide)
peptide: SQEPPISLDLPFELLREVLEMTKADQLAQQAHSNRKLLDIA-NH2
B33: SEQ ID NO 7 (peptide)
peptide: SQEIVLSLDVPIGLLREVLEMTKADQLAQQAHSNRKLLDIA-NH2
B34: SEQ ID NO 5 (peptide)
peptide: IVLSLDVPGPLLQILLEQTKQEAAREQATTNARILARV-NH2
B35: SEQ ID NO 91 (peptide)
peptide: SQEPPISLDLPFQLLREVLEMTKADQLAQQAHSNRKLLDIA-NH2
B36: SEQ ID NO 90 (peptide)
peptide: SQEPPISLDLPLGLLREVLEMTKADQLAQQAHSNRKLLDIA-NH2
B37: SEQ ID NO 93 (peptide)
peptide: SQEPPISLDLPIGLLREVLEMTKADQLAQQAHSNRKLLDIA-NH2
B38: SEQ ID NO 98 (peptide)
peptide: SQEPPISLDLPTGLLREVLEMTKADQLAQQAHSNRKLLDIA-NH2

Key:
[1] = molecular target: T1, corticotropin releasing factor 2 receptor; assay: cell-based or functional assay
T1 sequence (Q13324 whole entry, species assumed, looked up): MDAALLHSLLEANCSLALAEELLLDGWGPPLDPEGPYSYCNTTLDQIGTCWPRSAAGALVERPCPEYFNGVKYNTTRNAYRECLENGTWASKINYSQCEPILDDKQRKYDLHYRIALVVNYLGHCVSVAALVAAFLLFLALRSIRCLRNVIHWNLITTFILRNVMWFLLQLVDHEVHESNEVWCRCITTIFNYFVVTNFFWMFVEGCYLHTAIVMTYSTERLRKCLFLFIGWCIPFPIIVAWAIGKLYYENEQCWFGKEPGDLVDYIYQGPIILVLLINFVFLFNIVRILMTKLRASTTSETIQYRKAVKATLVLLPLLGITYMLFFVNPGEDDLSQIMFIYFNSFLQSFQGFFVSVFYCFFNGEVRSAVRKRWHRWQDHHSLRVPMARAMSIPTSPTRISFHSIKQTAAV

[2] = molecular target: corticotropin releasing factor 1 receptor; assay: cell-based or functional assay
Throughout, for CRF1R Emax: reference of the scale not given here.
Throughout, for CRF2R Emax: reference of the scale not given here.

Binder | CRF2R EC50 [1] [nM] | CRF2R Emax [1] [%] | CRF1R EC50 [2] [nM] | CRF1R Emax [2] [%]
B1 | 100 | 12.6 | 100 | 11.2
B2 | 100 | 15.8 | 100 | 4.6
B3 | 31.5 | 100 | 783 | 64
B4 | 100 | 8.25 | 100 | 5.55
B5 | 100 | 8.1 | 100 | 4.6
B6 | 100 | 6.15 | 100 | 7.3
B7 | 100 | 12.5 | 100 | 16.3
B8 | 4.3 | 73 | 60.9 | 81
B9 | 100 | 14.7 | 100 | 5.3
B10 | > 100 | 89 | > 100 | 12
B11 | 55 | 100 | > 100 | 7
B12 | 1.77 | 100 | 82.2 | 99
B13 | 67.9 | 64 | > 100 | 16
B14 | 67.3 | 100 | 73.2 | 34
B15 | 5.85 | 81 | 34.5 | 88
B16 | 38.5 | 74 | > 100 | 33
B17 | 43.4 | 100 | > 100 | 5
B18 | > 100 | 11 | > 100 | 11
B19 | > 100 | 55 | > 100 | 4

Binder | CRF2R EC50 [1] [nM] | CRF2R Emax [1] [%] | CRF1R EC50 [2] [nM] | CRF1R Emax [2] [%]
B20 | 18.2 | 82 | > 100 | 8
B21 | 63.3 | 94 | 68.9 | 57
B22 | 6.53 | 88 | > 100 | 55
B23 | 1.91 | 81 | 52.2 | 96
B24 | 10.9 | 90 | 96.2 | 85
B25 | 24.6 | 78 | > 100 | 6
B26 | 94.8 | 56 | > 100 | 6
B27 | 91.5 | 76 | > 100 | 7
B28 | 22.3 | 100 | > 100 | 8
B29 | > 100 | 52 | > 100 | 5
B30 | 10 | 50 | 44.2 | 96
B31 | 2.34 | 100 | 11 | 84
B32 | 100 | 7.6 | 100 | 4.25
B33 | 100 | 19 | 100 | 4
B34 | 100 | 12 | 100 | 9
B35 | 100 | 7.1 | 100 | 4
B36 | 100 | 12.2 | 100 | 4
B37 | 100 | 6.4 | 100 | 5
B38 | 100 | 5.5 | 100 | 4
